{
  "source": "patent US20220347304A1",
  "about": "(CYTOKI PHARMA, published 2022)",
  "test_in_all_cases": "cell-based or functional assay",
  "key": {"[1]": {"target": "T1, human IL-22 receptor (human IL-22Ra and human IL-10Rb) on cells (human, UniProt Q8N6P7 16-574; Q08334 20-325)", "T1 sequence (looked up) 1": "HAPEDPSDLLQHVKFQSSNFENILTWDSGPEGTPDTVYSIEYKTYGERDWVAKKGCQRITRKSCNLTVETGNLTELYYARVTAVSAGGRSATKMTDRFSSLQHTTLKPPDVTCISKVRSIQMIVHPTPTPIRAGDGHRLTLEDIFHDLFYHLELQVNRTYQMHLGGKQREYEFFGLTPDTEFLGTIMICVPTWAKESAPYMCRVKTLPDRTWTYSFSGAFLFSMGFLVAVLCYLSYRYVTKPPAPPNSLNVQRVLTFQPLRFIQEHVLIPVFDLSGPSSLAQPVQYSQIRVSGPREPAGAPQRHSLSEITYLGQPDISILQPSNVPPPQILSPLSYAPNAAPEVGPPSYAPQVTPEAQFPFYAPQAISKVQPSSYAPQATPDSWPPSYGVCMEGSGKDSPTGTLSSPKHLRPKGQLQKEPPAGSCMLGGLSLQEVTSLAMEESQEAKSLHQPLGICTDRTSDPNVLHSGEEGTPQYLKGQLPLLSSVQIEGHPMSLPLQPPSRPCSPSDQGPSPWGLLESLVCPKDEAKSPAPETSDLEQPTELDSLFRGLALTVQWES", "T1 sequence (looked up) 2": "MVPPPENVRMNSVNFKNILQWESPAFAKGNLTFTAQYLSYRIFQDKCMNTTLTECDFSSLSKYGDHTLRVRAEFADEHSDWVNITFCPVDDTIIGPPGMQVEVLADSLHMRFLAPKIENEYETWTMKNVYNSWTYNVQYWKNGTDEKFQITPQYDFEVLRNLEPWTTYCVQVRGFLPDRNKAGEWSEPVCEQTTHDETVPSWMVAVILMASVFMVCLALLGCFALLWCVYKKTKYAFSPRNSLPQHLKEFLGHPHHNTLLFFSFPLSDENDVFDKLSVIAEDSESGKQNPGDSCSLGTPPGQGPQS"}, "[2]": {"target": "T1, human IL-22 receptor (human IL-22Ra and …)", "remark": "listed apart in the source"}, "[3]": {"target": "T1, human IL-22 receptor (human IL-22Ra and …)", "remark": "listed apart in the source"}},
  "data": [
    {"binder": "Derivative 2 (ligand, C18 diacid attached by linker γGlu-OEG-OEG-C2DA-Ac to Cys at site -7C (in the 15-mer N-terminal peptide G-P-G-S-G-S-G-S-C-G-S-G-S-G-S, numbered negatively from hIL-22 residue 1)) GPGSGSGSCGSGSGSAPISSHCRLDKSNFQQPYITNRTFMLAKEASLADNNTDVRLIGEKLFHGVSMSERCYLMKQVLNFTLEEVLFPQSDRFQPYMQEVVPFLARLSNRLSTCHIEGDDLHIQRNVQKLKDTVKKLGESGEIKAIGELDLLFMSLRNACI", "values": [
      {"measurement": "EC50, pSTAT3 (AlphaScreen SureFire STAT3 p-Tyr705) in HepG2 cells", "setting": "[1]", "value": 6.98, "unit": "nM"}
    ]},
    {"binder": "Derivative 4 (ligand, C16 diacid attached by linker γGlu-OEG-OEG-C2DA-Ac to Cys at site -7C (in the 15-mer N-terminal peptide)) GPGSGSGSCGSGSGSAPISSHCRLDKSNFQQPYITNRTFMLAKEASLADNNTDVRLIGEKLFHGVSMSERCYLMKQVLNFTLEEVLFPQSDRFQPYMQEVVPFLARLSNRLSTCHIEGDDLHIQRNVQKLKDTVKKLGESGEIKAIGELDLLFMSLRNACI", "values": [
      {"measurement": "EC50, luciferase reporter gene (STAT3-induced promoter) in BHK cells expressing human IL-22Ra and IL-10Rb", "setting": "[2]", "value": 180, "unit": "pM"}
    ]},
    {"binder": "Derivative 10 (ligand, C16 diacid attached by linker γGlu-OEG-OEG-C2DA-Ac to Cys at site 1C (Cys substituted at position 1 of hIL-22)) GPGCPISSHCRLDKSNFQQPYITNRTFMLAKEASLADQNTDVRLIGEKLFHGVSMSERCYLMKQVLQFTLEEVLFPQSDRFQPYMQEVVPFLARLSNRLSTCHIEGDDLHIQRNVQKLKDTVKKLGESGEIKAIGELDLLFMSLRNACI", "values": [
      {"measurement": "EC50, luciferase reporter gene (STAT3-induced promoter) in BHK cells expressing human IL-22Ra and IL-10Rb", "setting": "[2]", "value": 370, "unit": "pM"}
    ]},
    {"binder": "Derivative 6 (ligand, C18 diacid attached by linker γGlu-OEG-OEG-C2DA-Ac to Cys at site 1C (Cys substituted at position 1 of hIL-22)) GPGCPISSHCRLDKSNFQQPYITNRTFMLAKEASLADQNTDVRLIGEKLFHGVSMSERCYLMKQVLQFTLEEVLFPQSDRFQPYMQEVVPFLARLSNRLSTCHIEGDDLHIQRNVQKLKDTVKKLGESGEIKAIGELDLLFMSLRNACI", "values": [
      {"measurement": "EC50, luciferase reporter gene (STAT3-induced promoter) in BHK cells expressing human IL-22Ra and IL-10Rb", "setting": "[2]", "value": 610, "unit": "pM"},
      {"measurement": "EC50, pSTAT3 (AlphaScreen SureFire STAT3 p-Tyr705) in HepG2 cells", "setting": "[1]", "value": 14.9, "unit": "nM"}
    ]},
    {"binder": "Comparator 5 (ligand) GPGCPISSHCRLDKSNFQQPYITNRTFMLAKEASLADQNTDVRLIGEKLFHGVSMSERCYLMKQVLQFTLEEVLFPQSDRFQPYMQEVVPFLARLSNRLSTCHIEGDDLHIQRNVQKLKDTVKKLGESGEIKAIGELDLLFMSLRNACI", "values": [
      {"measurement": "EC50, luciferase reporter gene (STAT3-induced promoter) in BHK cells expressing human IL-22Ra and IL-10Rb", "setting": "[2]", "value": 190, "unit": "pM"}
    ]},
    {"binder": "Derivative 1 (ligand, C18 diacid attached by linker γGlu-OEG-OEG-C2DA-Ac to Cys at site 1C (Cys substituted at position 1 of hIL-22, after the G-P-G N-terminal peptide)) GPGCPISSHCRLDKSNFQQPYITNRTFMLAKEASLADNNTDVRLIGEKLFHGVSMSERCYLMKQVLNFTLEEVLFPQSDRFQPYMQEVVPFLARLSNRLSTCHIEGDDLHIQRNVQKLKDTVKKLGESGEIKAIGELDLLFMSLRNACI", "values": [
      {"measurement": "EC50, luciferase reporter gene (STAT3-induced promoter) in BHK cells expressing human IL-22Ra and IL-10Rb", "setting": "[2]", "value": 480, "unit": "pM"},
      {"measurement": "EC50, pSTAT3 (AlphaScreen SureFire STAT3 p-Tyr705) in HepG2 cells", "setting": "[1]", "value": 10.1, "unit": "nM"},
      {"measurement": "potency in BHK cell reporter gene assay, fold reduction against hIL-22", "setting": "[3]", "value": 7, "unit": "fold"},
      {"measurement": "potency in HepG2 pSTAT3 assay, fold reduction against hIL-22", "setting": "[3]", "value": 2.5, "unit": "fold"}
    ]},
    {"binder": "Comparator 4 (ligand) GPGCPISSHCRLDKSNFQQPYITNRTFMLAKEASLADNNTDVRLIGEKLFHGVSMSERCYLMKQVLNFTLEEVLFPQSDRFQPYMQEVVPFLARLSNRLSTCHIEGDDLHIQRNVQKLKDTVKKLGESGEIKAIGELDLLFMSLRNACI", "values": [
      {"measurement": "EC50, pSTAT3 (AlphaScreen SureFire STAT3 p-Tyr705) in HepG2 cells", "setting": "[1]", "value": 12.1, "unit": "nM"}
    ]},
    {"binder": "Derivative 3 (ligand, C16 diacid attached by linker γGlu-OEG-OEG-C2DA-Ac to Cys at site 1C (Cys substituted at position 1 of hIL-22)) GPGCPISSHCRLDKSNFQQPYITNRTFMLAKEASLADNNTDVRLIGEKLFHGVSMSERCYLMKQVLNFTLEEVLFPQSDRFQPYMQEVVPFLARLSNRLSTCHIEGDDLHIQRNVQKLKDTVKKLGESGEIKAIGELDLLFMSLRNACI", "values": [
      {"measurement": "EC50, luciferase reporter gene (STAT3-induced promoter) in BHK cells expressing human IL-22Ra and IL-10Rb", "setting": "[2]", "value": 300, "unit": "pM"},
      {"measurement": "potency in BHK cell reporter gene assay, fold reduction against hIL-22", "setting": "[3]", "value": 4, "unit": "fold"}
    ]},
    {"binder": "native mature human IL-22 (hIL-22) (ligand) APISSHCRLDKSNFQQPYITNRTFMLAKEASLADNNTDVRLIGEKLFHGVSMSERCYLMKQVLNFTLEEVLFPQSDRFQPYMQEVVPFLARLSNRLSTCHIEGDDLHIQRNVQKLKDTVKKLGESGEIKAIGELDLLFMSLRNACI", "values": [
      {"measurement": "EC50, luciferase reporter gene (STAT3-induced promoter) in BHK cells expressing human IL-22Ra and IL-10Rb", "setting": "[2]", "value": 70, "unit": "pM"},
      {"measurement": "EC50, pSTAT3 (AlphaScreen SureFire STAT3 p-Tyr705) in HepG2 cells", "setting": "[1]", "value": 3.88, "unit": "nM"}
    ]},
    {"binder": "Derivative 9 (ligand, C18 diacid attached by linker γGlu-OEG-OEG-C2DA-Ac to Cys at site 33C (Cys substituted at position 33 of hIL-22)) APISSHCRLDKSNFQQPYITNRTFMLAKEASLCDQNTDVRLIGEKLFHGVSMSERCYLMKQVLQFTLEEVLFPQSDRFQPYMQEVVPFLARLSNRLSTCHIEGDDLHIQRNVQKLKDTVKKLGESGEIKAIGELDLLFMSLRNACI", "values": [
      {"measurement": "EC50, luciferase reporter gene (STAT3-induced promoter) in BHK cells expressing human IL-22Ra and IL-10Rb", "setting": "[2]", "value": 280, "unit": "pM"}
    ]},
    {"binder": "Comparator 1 (ligand) GPISSHCRLDKSNFQQPYITNRTFMLAKEASLADNNTDVRLIGEKLFHGVSMSERCYLMKQVLNFTLEEVLFPQSDRFQPYMQEVVPFLARLSNRLSTCHIEGDDLHIQRNVQKLKDTVKKLGESGEIKAIGELDLLFMSLRNACI", "values": [
      {"measurement": "EC50, luciferase reporter gene (STAT3-induced promoter) in BHK cells expressing human IL-22Ra and IL-10Rb", "setting": "[2]", "value": 60, "unit": "pM"},
      {"measurement": "EC50, pSTAT3 (AlphaScreen SureFire STAT3 p-Tyr705) in HepG2 cells", "setting": "[1]", "value": 4.73, "unit": "nM"}
    ]},
    {"binder": "Derivative 8 (ligand, C18 diacid attached by linker γGlu-OEG-OEG-C2DA-Ac to Cys at site 6C (Cys substituted at position 6 of hIL-22)) GAPISSCCRLDKSNFQQPYITNRTFMLAKEASLADQNTDVRLIGEKLFHGVSMSERCYLMKQVLQFTLEEVLFPQSDRFQPYMQEVVPFLARLSNRLSTCHIEGDDLHIQRNVQKLKDTVKKLGESGEIKAIGELDLLFMSLRNACI", "values": [
      {"measurement": "EC50, luciferase reporter gene (STAT3-induced promoter) in BHK cells expressing human IL-22Ra and IL-10Rb", "setting": "[2]", "value": 1240, "unit": "pM"}
    ]}
  ]
}
